# Reference: article PMC3713010, “Sox2 Transcriptionally Regulates Pqbp1, an Intellectual Disability-Microcephaly Causative Gene, in Neural Stem Progenitor Cells”
# B1: 1 (dsDNA)
# DNA 1: GGGGGAAAATAACCAAAATAAAAAGTGTACAATTCAGTGGCCCCCC
# DNA 2: GGGGGGCCACTGAATTGTACACTTTTTATTTTGGTTATTTTCCCCC
# B2: 2 (dsDNA)
# DNA 1: GGGGGGCCATAGAATTGTACTTCTGTCACCAGTTTTATTTTTTTATTTCCCCC
# DNA 2: GGGGGAAATAAAAAAATAAAACTGGTGACAGAAGTACAATTCTATGGCCCCCC
# B3: 9 (dsDNA)
# DNA 1: GGGGGTCCTGCCACTTGGGTTGCAGTGAGGACAATGAAATGAGCCCCC
# DNA 2: GGGGGCTCATTTCATTGTCCTCACTGCAACCCAAGTGGCAGGACCCCC
# B4: 100 (dsDNA)
# DNA 1: GGGGGCAACCAAAAAAAATGTATTTTACAAAAATCACAACCCCC
# DNA 2: GGGGGTTGTGATTTTTGTAAAATACATTTTTTTTGGTTGCCCCC
# B5: 101 (dsDNA)
# DNA 1: GGGGGTGCCTCCTTTTGTGAGCTATTTATAATGCTAACCCCC
# DNA 2: GGGGGTTAGCATTATAAATAGCTCACAAAAGGAGGCACCCCC
# B6: 102a (dsDNA)
# DNA 1: GGGGGGGATCCCCACAATACAAAAAAAACAAAAACAAAACCCCCC
# DNA 2: GGGGGGTTTTGTTTTTGTTTTTTTTGTATTGTGGGGATCCCCCCC
# B7: 102b (dsDNA)
# DNA 1: GGGGGAAAACAAAACAAAACTGGATTTGGCGATTGTATCCCCC
# DNA 2: GGGGGATACAATCGCCAAATCCAGTTTTGTTTTGTTTTCCCCC
# B8: 102c (dsDNA)
# DNA 1: GGGGGATTTGGCGATTGTATTATAATTGTCTATCAGTCCCCC
# DNA 2: GGGGGACTGATAGACAATTATAATACAATCGCCAAATCCCCC
# B9: 104 (dsDNA)
# DNA 1: GGGGGCACAATTTTTATAATATATAATTGTTTCATCAACCCCC
# DNA 2: GGGGGTTGATGAAACAATTATATATTATAAAAATTGTGCCCCC
# B10: 105 (dsDNA)
# DNA 1: GGGGGATTTTTTAAAAAATTAGACTACCACAAATCAACTGTCCCCC
# DNA 2: GGGGGACAGTTGATTTGTGGTAGTCTAATTTTTTAAAAAATCCCCC
# B11: 106 (dsDNA)
# DNA 1: GGGGGGCTTCCCTAGAATTGGAGATACAAAGGGCTCTGCCCCC
# DNA 2: GGGGGCAGAGCCCTTTGTATCTCCAATTCTAGGGAAGCCCCCC
# B12: 107 (dsDNA)
# DNA 1: GGGGGACTAGTTTTCTATTACTACAAATCTCAACTCCCCC
# DNA 2: GGGGGAGTTGAGATTTGTAGTAATAGAAAACTAGTCCCCC
# B13: 108 (dsDNA)
# DNA 1: GGGGGCATCTTATCGTTAATATATACGTTTGTTACATATACCCCC
# DNA 2: GGGGGTATATGTAACAAACGTATATATTAACGATAAGATGCCCCC
# B14: 10 (dsDNA)
# DNA 1: GGGGGACACACACACAAAGATTTATTTATTCATTTAATCCCCC
# DNA 2: GGGGGATTAAATGAATAAATAAATCTTTGTGTGTGTGTCCCCC
# B15: 109 (dsDNA)
# DNA 1: GGGGGCTTTTTTTTTTGTATGTGATTTGAGGCAGAGTCCCCC
# DNA 2: GGGGGACTCTGCCTCAAATCACATACAAAAAAAAAAGCCCCC
# B16: 110 (dsDNA)
# DNA 1: GGGGGTTTATTTATTTGTTTTATTTCTATTTTTCTTGGTGACCCCC
# DNA 2: GGGGGTCACCAAGAAAAATAGAAATAAAACAAATAAATAAACCCCC
# B17: 111 (dsDNA)
# DNA 1: GGGGGTTCAACCTTTTGTTGTATCATTTAAAAAACATTCCCCC
# DNA 2: GGGGGAATGTTTTTTAAATGATACAACAAAAGGTTGAACCCCC
# B18: 112 (dsDNA)
# DNA 1: GGGGGTGTGTTCATTTGTTTTTATTTTAGAAGGAGTCCCCC
# DNA 2: GGGGGACTCCTTCTAAAATAAAAACAAATGAACACACCCCC
# B19: 113 (dsDNA)
# DNA 1: GGGGGACTAAGTCATTGTTTATTTCCGTGCTGTTCCCCC
# DNA 2: GGGGGAACAGCACGGAAATAAACAATGACTTAGTCCCCC
# B20: 114 (dsDNA)
# DNA 1: GGGGGTGATTTTTGCAAAATTTTGTTTTGTTTCTTGAGCCCCC
# DNA 2: GGGGGCTCAAGAAACAAAACAAAATTTTGCAAAAATCACCCCC
# B21: 115 (dsDNA)
# DNA 1: GGGGGCTGGCCAGACAATGACGATATTTTTTTCCTTCACCCCCC
# DNA 2: GGGGGGTGAAGGAAAAAAATATCGTCATTGTCTGGCCAGCCCCC
# B22: 116 (dsDNA)
# DNA 1: GGGGGAAGGCCAGACTAATCTACAAAGTGAGTTCCCCCC
# DNA 2: GGGGGGAACTCACTTTGTAGATTAGTCTGGCCTTCCCCC
# Target: T1, Oct6 DNA-binding domain (BD-Oct6) (Mus musculus (B6), UniProt P21952 317-416)
# T1 sequence: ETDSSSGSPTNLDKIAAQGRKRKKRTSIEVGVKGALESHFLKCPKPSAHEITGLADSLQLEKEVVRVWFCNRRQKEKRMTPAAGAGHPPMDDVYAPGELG
# Test: EMSA; 10% glycerol, 20 mM HEPES pH 7.8, 45 mM KCl, 10 mM NaCl, 1 mM EDTA, 1 mM DTT, 0.2 ug/uL BSA, 0.1% NP-40, 50 ng poly-dIdC; 20 ng each GST protein; room temperature 30 min (heterodimers 4 C); 6% PAGE 0.25x TBE
# Details: protein: recombinant; tags: GST (N-terminal, pGEX-6P-1); label: 32P-dCTP fill-in of the 5' (dG)5 overhangs of both strands (Methods; control probes are given with GGG)
# How it was run: (§1)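 DNA binding of transcription factor DNA-binding domains to candidate cis-elements was read from band radioactivity in the expected shift region. The GST-tagged domains came from E. coli BL21 via glutathione-sepharose; probes were annealed oligonucleotides labelled with 32P-dCTP. Each assay used 20 ng protein, 40,000–50,000 cpm probe and 50 ng poly-dIdC for 30 min at room temperature, followed by 6% polyacrylamide electrophoresis in 0.25×TBE at 4°C.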
row,Binder,binding result
1,B1,no binding
2,B2,no binding
3,B3,no binding
4,B4,binds
5,B5,binds
6,B6,no binding
7,B7,no binding
8,B8,binds
9,B9,binds
10,B10,binds
11,B11,no binding
12,B12,no binding
13,B13,binds
14,B14,no binding
15,B15,no binding
16,B16,binds
17,B17,binds
18,B18,binds
19,B19,no binding
20,B20,no binding
21,B21,no binding
22,B22,no binding

# Target: T2, Brn2 DNA-binding domain (BD-Brn2) (Mus musculus (B6), UniProt P31360 336-435)
# T2 sequence: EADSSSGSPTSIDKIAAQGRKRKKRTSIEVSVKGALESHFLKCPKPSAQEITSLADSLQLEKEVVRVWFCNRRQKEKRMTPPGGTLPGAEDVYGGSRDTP
# Test: as above
# Details: protein: recombinant; tags: GST (N-terminal, pGEX-6P-1); label: 32P-dCTP fill-in of the 5' (dG)5 overhangs of both strands (Methods; control probes are given with GGG)
# How it was run: as §1
row,Binder,binding result
1,B1,no binding
2,B2,no binding
3,B3,no binding
4,B4,no binding
5,B5,binds
6,B6,no binding
7,B7,no binding
8,B8,binds
9,B9,binds
10,B10,binds
11,B11,no binding
12,B12,no binding
13,B13,binds
14,B14,binds
15,B15,no binding
16,B16,no binding
17,B17,binds
18,B18,binds
19,B19,no binding
20,B20,no binding
21,B21,no binding
22,B22,no binding

# Target: Pax6 DNA-binding domain (BD-Pax6) (Mus musculus (B6), UniProt P63015 190-289)
# Sequence (P63015 190-289): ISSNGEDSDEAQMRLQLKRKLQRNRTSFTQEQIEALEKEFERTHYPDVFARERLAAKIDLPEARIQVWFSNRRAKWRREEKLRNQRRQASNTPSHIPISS
# Test: as above
# Details: protein: recombinant; tags: GST (N-terminal, pGEX-6P-1); label: 32P-dCTP fill-in of the 5' (dG)5 overhangs of both strands (Methods; control probes are given with GGG)
# How it was run: as §1
row,Binder,binding result
1,B1,no binding
2,B2,no binding
3,B3,no binding
4,B4,binds
5,B5,no binding
6,B6,no binding
7,B7,no binding
8,B8,binds
9,B9,binds
10,B10,binds
11,B11,no binding
12,B12,no binding
13,B13,binds
14,B14,no binding
15,B15,no binding
16,B16,no binding
17,B17,no binding
18,B18,no binding
19,B19,no binding
20,B20,no binding
21,B21,no binding
22,B22,no binding
